The supplement of paper PMC5998384

Tests used:
HeLa Kyoto [1] = assay: solubility change mitosis vs G1/S (difference of NP-40 vs SDS log2 ratios) (log2 ratio difference); higher = more soluble in mitosis
HeLa Kyoto [2] = assay: thermal stability score vs G1/S (z-score of summed log2 fold changes over temperatures); higher = more thermally stable than in G1/S
HeLa Kyoto [3] = assay: melting temperature (median over replicates), in situ; higher = more thermally stable
HeLa Kyoto [4] = assay: solubility in G1/S (NP-40 vs SDS abundance) (log2 ratio); higher = more soluble; conditions: cell cycle stage: G1/S
[5] = cell cycle stage: early G1 (4.5 h after nocodazole release)
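For melting temperature (median over replicates), in situ in this document: HeLa Kyoto cells synchronized by double thymidine or nocodazole block, proteins quantified by TMT10plex mass spectrometry, three independent biological replicates.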
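For solubility change mitosis vs G1/S (difference of NP-40 vs SDS log2 ratios) in this document: synchronized HeLa Kyoto cells (double thymidine block for G1/S, nocodazole release for mitosis), protein amounts in NP-40 versus SDS lysates quantified by mass spectrometry, three biological replicates.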
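For solubility in G1/S (NP-40 vs SDS abundance) in this document: HeLa Kyoto cells arrested at G1/S by double thymidine block, proteins quantified by TMT10plex mass spectrometry in mild NP-40 versus SDS extracts, three biological replicates.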
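For thermal stability score vs G1/S (z-score of summed log2 fold changes over temperatures) in this document: synchronized HeLa Kyoto cells, proteins quantified by TMT10plex mass spectrometry, three biological replicates, mitosis taken 0.5 h after nocodazole release, G1/S directly after double thymidine block.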

| Sequence | solubility change mitosis (log2) (HeLa Kyoto [1]) | thermal stability score (HeLa Kyoto [2]; [5]) | thermal stability score (HeLa Kyoto [2]; cell cycle stage: mitosis) | melting temperature (HeLa Kyoto [3]; cell cycle stage: G1/S) [°C] | melting temperature (HeLa Kyoto [3]; cell cycle stage: mitosis) [°C] | solubility in G1/S (log2) (HeLa Kyoto [4]) |
| --- | --- | --- | --- | --- | --- | --- |
| MSRLLWRKVAGATVGPGPVPAPGRWVSSSVPASDPSDGQRRRQQQQQQQQQQQQQPQQPQVLSSEGGQLRHNPLDIQMLSRGLHEQIFGQGGEMPGEAAVRRSVEHLQKHGLWGQPAVPLPDVELRLPPLYGDNLDQHFRLLAQKQSLPYLEAANLLLQAQLPPKPPAWAWAEGWTRYGPEGEAVPVAIPEERALVFDVEVCLAEGTCPTLAVAISPSAWYSWCSQRLVEERYSWTSQLSPADLIPLEVPTGASSPTQRDWQEQLVVGHNVSFDRAHIREQYLIQGSRMRFLDTMSMHMAISGLSSFQRSLWIAAKQGKHKVQPPTKQGQKSQRKARRGPAISSWDWLDISSVNSLAEVHRLYVGGPPLEKEPRELFVKGTMKDIRENFQDLMQYCAQDVWATHEVFQQQLPLFLERCPHPVTLAGMLEMGVSYLPVNQNWERYLAEAQGTYEELQREMKKSLMDLANDACQLLSGERYKEDPWLWDLEWDLQEFKQKKAKKVKKEPATASKLPIEGAGAPGDPMDQEDLGPCSEEEEFQQDVMARACLQKLKGTTELLPKRPQHLPGHPGWYRKLCPRLDDPAWTPGPSLLSLQMRVTPKLMALTWDGFPLHYSERHGWGYLVPGRRDNLAKLPTGTTLESAGVVCPYRAIESLYRKHCLEQGKQQLMPQEAGLAEEFLLTDNSAIWQTVEELDYLEVEAEAKMENLRAAVPGQPLALTARGGPKDTQPSYHHGNGPYNDVDIPGCWFFKLPHKDGNSCNVGSPFAKDFLPKMEDGTLQAGPGGASGPRALEINKMISFWRNAHKRISSQMVVWLPRSALPRAVIRHPDYDEEGLYGAILPQVVTAGTITRRAVEPTWLTASNARPDRVGSELKAMVQAPPGYTLVGADVDSQELWIAAVLGDAHFAGMHGCTAFGWMTLQGRKSRGTDLHSKTATTVGISREHAKIFNYGRIYGAGQPFAERLLMQFNHRLTQQEAAEKAQQMYAATKGLRWYRLSDEGEWLVRELNLPVDRTEGGWISLQDLRKVQRETARKSQWKKWEVVAERAWKGGTESEMFNKLESIATSDIPRTPVLGCCISRALEPSAVQEEFMTSRVNWVVQSSAVDYLHLMLVAMKWLFEEFAIDGRFCISIHDEVRYLVREEDRYRAALALQITNLLTRCMFAYKLGLNDLPQSVAFFSAVDIDRCLRKEVTMDCKTPSNPTGMERRYGIPQGEALDIYQIIELTKGSLEKRSQPGP [POLG] | -0.0443 | 0.521 | 0.308 | 50.3 | 50.6 | 0.0107 |
| MAAERQEALREFVAVTGAEEDRARFFLESAGWDLQIALASFYEDGGDEDIVTISQATPSSVSRGTAPSDNRVTSFRDLIHDQDEDEEEEEGQRFYAGGSERSGQQIVGPPRKKSPNELVDDLFKGAKEHGAVAVERVTKSPGETSKPRPFAGGGYRLGAAPEEESAYVAGEKRQHSSQDVHVVLKLWKSGFSLDNGELRSYQDPSNAQFLESIRRGEVPAELRRLAHGGQVNLDMEDHRDEDFVKPKGAFKAFTGEGQKLGSTAPQVLSTSSPAQQAENEAKASSSILIDESEPTTNIQIRLADGGRLVQKFNHSHRISDIRLFIVDARPAMAATSFILMTTFPNKELADESQTLKEANLLNAVIVQRLT [NSFL1C] | 0.0342 | -1.97 | 1.13 | 51.7 | 52 | 0.384 |
| MAGYKPVAIQTYPILGEKITQDTLYWNNYKTPVQIKEFGAVSKVDFSPQPPYNYAVTASSRIHIYGRYSQEPIKTFSRFKDTAYCATFRQDGRLLVAGSEDGGVQLFDISGRAPLRQFEGHTKAVHTVDFTADKYHVVSGADDYTVKLWDIPNSKEILTFKEHSDYVRCGCASKLNPDLFITGSYDHTVKMFDARTSESVLSVEHGQPVESVLLFPSGGLLVSAGGRYVKVWDMLKGGQLLVSLKNHHKTVTCLCLSSSGQRLLSGSLDRKVKVYSTTSYKVVHSFDYAASILSLALAHEDETIVVGMTNGILSVKHRKSEAKKESLPRRRRPAYRTFIKGKNYMKQRDDILINRPAKKHLELYDRDLKHFRISKALDRVLDPTCTIKTPEITVSIIKELNRRGVLANALAGRDEKEISHVLNFLIRNLSQPRFAPVLINAAEIIIDIYLPVIGQSPVVDKKFLLLQGLVEKEIDYQRELLETLGMMDMLFATMRRKEGTSVLEHTSDGFPENKKIES [UTP15] | 0.558 | -0.279 | -3.5 | 52.6 | 50.9 | -1.23 |
| MQGPPRSLRAGLSLDDFIPGHLQSHIGSSSRGTRVPVIRNGGSNTLNFQFHDPAPRTVCNGGYTPRRDASQHPDPAWYQTWPGPGSKPSASTKIPASQHTQNWSATWTKDSKRRDKRWVKYEGIGPVDESGMPIAPRSSVDRPRDWYRRMFQQIHRKMPDLQLDWTFEEPPRDPRHLGAQQRPAHRPGPATSSSGRSWDHSEELPRSTFNYRPGAFSTVLQPSNQVLRRREKVDNVWTEESWNQFLQELETGQRPKKPLVDDPGEKPSQPIEVLLERELAELSAELDKDLRAIETRLPSPKSSPAPRRAPEQRPPAGPASAWSSSYPHAPYLGSARSLSPHKMADGGSPFLGRRDFVYPSSTRDPSASNGGGSPARREEKKRKAARLKFDFQAQSPKELTLQKGDIVYIHKEVDKNWLEGEHHGRLGIFPANYVEVLPADEIPKPIKPPTYQVLEYGEAVAQYTFKGDLEVELSFRKGEHICLIRKVNENWYEGRITGTGRQGIFPASYVQVSREPRLRLCDDGPQLPTSPRLTAAARSARHPSSPSALRSPADPIDLGGQTSPRRTGFSFPTQEPRPQTQNLGTPGPALSHSRGPSHPLDLGTSSPNTSQIHWTPYRAMYQYRPQNEDELELREGDRVDVMQQCDDGWFVGVSRRTQKFGTFPGNYVAPV [SORBS3] | -0.0255 | -0.822 | 0.186 | 51.2 | 52 | 0.169 |
| MAPVHGDDSLSDSGSFVSSRARREKKSKKGRQEALERLKKAKAGEKYKYEVEDFTGVYEEVDEEQYSKLVQARQDDDWIVDDDGIGYVEDGREIFDDDLEDDALDADEKGKDGKARNKDKRNVKKLAVTKPNNIKSMFIACAGKKTADKAVDLSKDGLLGDILQDLNTETPQITPPPVMILKKKRSIGASPNPFSVHTATAVPSGKIASPVSRKEPPLTPVPLKRAEFAGDDVQVESTEEEQESGAMEFEDGDFDEPMEVEEVDLEPMAAKAWDKESEPAEEVKQEADSGKGTVSYLGSFLPDVSCWDIDQEGDSSFSVQEVQVDSSHLPLVKGADEEQVFHFYWLDAYEDQYNQPGVVFLFGKVWIESAETHVSCCVMVKNIERTLYFLPREMKIDLNTGKETGTPISMKDVYEEFDEKIATKYKIMKFKSKPVEKNYAFEIPDVPEKSEYLEVKYSAEMPQLPQDLKGETFSHVFGTNTSSLELFLMNRKIKGPCWLEVKSPQLLNQPVSWCKVEAMALKPDLVNVIKDVSPPPLVVMAFSMKTMQNAKNHQNEIIAMAALVHHSFALDKAAPKPPFQSHFCVVSKPKDCIFPYAFKEVIEKKNVKVEVAATERTLLGFFLAKVHKIDPDIIVGHNIYGFELEVLLQRINVCKAPHWSKIGRLKRSNMPKLGGRSGFGERNATCGRMICDVEISAKELIRCKSYHLSELVQQILKTERVVIPMENIQNMYSESSQLLYLLEHTWKDAKFILQIMCELNVLPLALQITNIAGNIMSRTLMGGRSERNEFLLLHAFYENNYIVPDKQIFRKPQQKLGDEDEEIDGDTNKYKKGRKKAAYAGGLVLDPKVGFYDKFILLLDFNSLYPSIIQEFNICFTTVQRVASEAQKVTEDGEQEQIPELPDPSLEMGILPREIRKLVERRKQVKQLMKQQDLNPDLILQYDIRQKALKLTANSMYGCLGFSYSRFYAKPLAALVTYKGREILMHTKEMVQKMNLEVIYGDTDSIMINTNSTNLEEVFKLGNKVKSEVNKLYKLLEIDIDGVFKSLLLLKKKKYAALVVEPTSDGNYVTKQELKGLDIVRRDWCDLAKDTGNFVIGQILSDQSRDTIVENIQKRLIEIGENVLNGSVPVSQFEINKALTKDPQDYPDKKSLPHVHVALWINSQGGRKVKAGDTVSYVICQDGSNLTASQRAYAPEQLQKQDNLTIDTQYYLAQQIHPVVARICEPIDGIDAVLIATWLGLDPTQFRVHHYHKDEENDALLGGPAQLTDEEKYRDCERFKCPCPTCGTENIYDNVFDGSGTDMEPSLYRCSNIDCKASPLTFTVQLSNKLIMDIRRFIKKYYDGWLICEEPTCRNRTRHLPLQFSRTGPLCPACMKATLQPEYSDKSLYTQLCFYRYIFDAECALEKLTTDHEKDKLKKQFFTPKVLQDYRKLKNTAEQFLSRSGYSEVNLSKLFAGCAVKS [POLA1] | -0.107 | 1.03 | 3.37 | 49 | 50.1 | -0.19 |
